Reference: patent US20190106501A1 (FRED HUTCHINSON CANCER RESEARCH CENTER, published 2019)

Target: T1, CD20 (human, UniProt P11836 1-297)
T1 sequence (looked up): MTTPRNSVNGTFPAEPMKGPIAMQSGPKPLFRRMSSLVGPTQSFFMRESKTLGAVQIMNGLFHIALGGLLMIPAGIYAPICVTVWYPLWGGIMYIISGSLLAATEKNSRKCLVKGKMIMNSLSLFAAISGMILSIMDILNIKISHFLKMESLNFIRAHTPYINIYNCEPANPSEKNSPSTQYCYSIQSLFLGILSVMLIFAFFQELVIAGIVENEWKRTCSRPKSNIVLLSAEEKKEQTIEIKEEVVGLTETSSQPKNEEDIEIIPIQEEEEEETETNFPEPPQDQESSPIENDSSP
Test: cell-based or functional assay

B1: rituximab (antibody, V domains shown)
VH: QVQLQQPGAELVKPGASVKMSCKASGYTFTSYNMHWVKQTPGRGLEWIGAIYPGNGDTSYNQKFKGKATLTADKSSSTAYMQLSSLTSEDSAVYYCARSTYYGGDWYFNVWGAGTTVTVSA
VL: QIVLSQSPAILSASPGEKVTMTCRASSSVSYIHWFQQKPGSSPKPWIYATSNLASGVPVRFSGSGSGTSYSLTISRVEAEDAATYYCQQWTSNPPTFGGGTKLEIK
For B1, the “cell size (forward scatter) of CAR T cells after stimulation with Raji, Daudi or Rec-1 cells pre-incubated with rituximab, relative to no rituximab” value was > 85%, the “cell size (forward scatter) of CAR T cells incubated with FL-18 cells at 200 µg/ml rituximab, relative to control” value was 73% and the “proliferation (CFSE dilution) of Leu16-28-BB-z-tEGFR CAR T cells with Raji, Daudi, Rec-1, FL-18 targets, rituximab up to 200 µg/ml, relative to no rituximab” value was > 96%.
